Assay results reported in US20210017278A1 (PROTHENA BIOSCIENCES, published 2021).

Experiments:
Experiment in all cases: ELISA, peptide coated on plate, HRP secondary, A490
[1] = molecular target: T1, peptide HEDT (SEQ ID NO: 19)
T1 construct: Coated on ELISA plates; also called X1EDX2 peptide
T1 peptide: HEDT
Description: (§1) ELISA plates were coated with indicated peptides, blocked, and assayed with either NEOD001 or 2A4, as indicated. After washing, appropriate horseradish peroxidase-conjugated secondary antibodies were applied. The plate was then washed and developed with o-phenylenediamene, and absorbance was read at 490 nm.
(§2) ELISA plates were coated with peptides having the amino acid sequence HEDT (SEQ ID NO: 19), AEDS (SEQ ID NO: 20), or HGDT (SEQ ID NO: 21), blocked, and assayed with either NEOD001 (an antibody with a light chain having the amino sequence set forth as SEQ ID NO: 13 and a heavy chain having the amino acid sequence set forth as SEQ ID NO: 14) or 2A4 (ATCC Accession Number 9662), as indicated. After washing, appropriate horseradish peroxidase-conjugated secondary antibodies were applied. The plate was then washed and developed with o-phenylenediamene, and absorbance was read at 490 nm.

[2] = molecular target: T2, peptide AEDS (SEQ ID NO: 20)
T2 construct: Coated on ELISA plates; also called X1EDX2 peptide
T2 peptide: AEDS
Description: as §1, §2

[3] = molecular target: T3, peptide HGDT (SEQ ID NO: 21)
T3 construct: Coated on ELISA plates; also called X1GDX2 peptide
T3 peptide: HGDT
Description: as §1, §2

binding result [1]: binds | binding result [2]: binds | binding result [3]: binds
B1: NEOD001 (antibody, human IgG1, kappa, V domains shown)
VH: EVQLVESGGGLVQPGGSLRLSCAASGFTFNTYAMYWIRQAPGKGLEWVARIRSKSNNYAIYYADSVKDRFTISRDDSKNSLYLQMNSLKTEDTAVYYCARPYSDSFAYWGQGTLVTVSS
VL: DVVMTQSPLSLPVTPGEPASISCRSSQSLVHSTGNTYLHWYLQKPGQSPQLLIYKVSNRFSGVPDRFSGSGSGTDFTLKISRVEAEDVGVYYCSQSTHVPFTFGGGTKVEIKR
notes: It shares the CDRs of murine antibody 2A4; also called humanized version of antibody 2A4
